Data as given in IntAct's records for PubMed 17947231.

B1: Calvin cycle protein CP12-2, chloroplastic (Arabidopsis thaliana (Mouse-ear cress)), Q9LZP9 (parent)
chain: MATIATGLNIATQRVFVTSENRPVCLAGPVHLNNSWNLGSRTTNRMMKLQPIKAAPEGGISDVVEKSIKEAQETCAGDPVSGECVAAWDEVEELSAAASHARDKKKADGSDPLEEYCKDNPETNECRTYDN
partner: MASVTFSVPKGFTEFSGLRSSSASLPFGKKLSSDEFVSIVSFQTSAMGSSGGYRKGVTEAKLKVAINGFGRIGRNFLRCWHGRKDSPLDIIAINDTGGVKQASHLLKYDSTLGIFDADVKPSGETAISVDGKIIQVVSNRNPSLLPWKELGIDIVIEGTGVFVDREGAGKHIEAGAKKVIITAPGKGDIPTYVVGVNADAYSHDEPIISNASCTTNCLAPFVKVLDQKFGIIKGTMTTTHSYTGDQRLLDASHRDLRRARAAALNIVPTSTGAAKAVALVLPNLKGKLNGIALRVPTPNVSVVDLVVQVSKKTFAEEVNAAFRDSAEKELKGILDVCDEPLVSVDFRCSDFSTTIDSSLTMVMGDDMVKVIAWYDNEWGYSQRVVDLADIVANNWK

Variants of: B1
Details: with GAPA1, P25856

Variant | effect of a mutation on the interaction
MATIATGLNIATQRVFVTSENRPVCLAGPVHLNNSWNLGSRTTNRMMKLQPIKAAPEGGISDVVEKSIKEAQETCAGDPVSGECVAAWDEVEELSAAASHARDKKKADGSDPLEEYCKDNPETNESRTYDN [C126S] | disrupting interaction
